Test results: the DeepSol protein solubility set

Assay: soluble on expression in E. coli; label from the status in PepcDB or PDB records

Row | Sequence | soluble on expression in E. coli
1 | MGSDKIHHHHHHMFRLQFRLFPPLRTAMHILLTALLKCLSLLPLSCLHTLGNRLGHLAFYLLKEDRARIVANMRQAGMNPDPKTVKAVFAETAKGGLELAPAFFRKPEDIETMFKAVHGWEHVQQALDKHEGLLFITPHIGSYDLGGRYISQQLPFPLTAMYKPPKIKAIDKIMQAGRVRGKGKTAPTSIQGVKQIIKALRSGEATIVLPDHVPSPQEGGEGVWVDFFGKPAYTMTLAAKLAHVKGVKTLFFCCERLPGGQGFDLHIRPVQGELNGDKAHDAAVFNRNAEYWIRRFPTQYLFMYNRYKMP | not soluble
2 | MGSDKIHHHHHHMFRVVICDDEKIQRSILKEFTEKLLSERCLNYQILEFSCGEDLISKYPEKIDIIFLDIQMKDINGIEVAKKIRKFDEKVEIIFTTAFSEYAPQGYEVRAYRYLVKPIEYSNFAMGVNLCIDNLQRKKERYIVLNSKKGFNRILIDSILYVETVKRDLVVHTIGRDYKANMSMKQAEKLLCENGFFRCHTSFIVNLRRIEDLRDNMITINEQFIPISKYRLKDLKVALTSLLCDIMY | not soluble
3 | MGSDKIHHHHHHMFTQDESYIKWKLFLEGDDQAYSWIYTHYIQVLYNYGLQITPDSEIVKDCIQDVFVKIYKAKKKLTVPQNPKVYLMIALKNNIYNTFNQERLQKNYAFSLYQTEEQLTVKNEFIDQEARHEEMNNIKRMMKILTPRQREVIYYRFIEELSYDDICQIMGLNYQSAYNLLQRSLQKIREAYGVTGIWMLILHQLTYLH | not soluble
4 | MGSDKIHHHHHHMFTTQIHLKVLAMMLLCGLLNACSQTPQQCSSAIITTWSSAHSQITQDITTLSSTEFQGRKTDSEGARLTQAYLITRFTEMGLQPWQPNFAVPFSFQHQFSTVSGVNIIATIAAKTRSNRWRVITAHYDHLGQTANKMYPGADDNASGIAGMMAIAAQWQENPPLDDVNLMIVATDAEEPGLYGSYALVTLLQQYPLMDIELSVNLDMIGHPDRRRAIYMEGQKNLSNFESIKPLLMQQTQLCIRTHHTNLLSGRMKKSDWLRASDHYPFHKAGYSWVYFGVPPHAQYHTADDTIATLDIDFIVAVAETVYQMLSIDKLTKAP | not soluble
5 | MGSDKIHHHHHHMFVIWSHRTGFIMSHQLTFADSEFSSKRRQTRKEIFLSRMEQILPWQNMVEVIEPFYPKAGNGRRPYPLETMLRIHCMQHWYNLSDGAMEDALYEIASMRLFARLSLDSALPDRTTIMNFRHLLEQHQLARQLFKTINRWLAEAGVMMTQGTLVDATIIEAPSSTKNKEQQRDPEMHQTKKGNQWHFGMKAHIGVDAKSGLTHSLVTTAANEHDLNQLGNLLHGEEQFVSADAGYQGAPQREELAEVDVDWLIAERPGKVRTLKQHPRKNKTAINIEYMKASIRARVEHPFRIIKRQFGFVKARYKGLLKNDNQLAMLFTLANLFRADQMIRQWERSH | not soluble
6 | MGSDKIHHHHHHMGEAIVITSGKGGVGKTTTSANLGTALAILGKRVCLVDTDIGLRNLDVVMGLENRIIYDLVDVVEGRCKMHQALVKDKRFDDLLYLMPAAQTSDKTAVAPEQIKNMVQELKQEFDYVIIDCPAGIEQGYKNAVSGADKAIVVTTPEISAVRDADRIIGLLEQEENIEPPRLVVNRIRNHLMKNGDTMDIDEIVQHLSIDLLGIVADDDEVIKASNHGEPIAMDPKNRASIAYRNIARRILGESVPLQVLEEQNKGMMAKIKSFFGVRS | not soluble
7 | MGSDKIHHHHHHMGEMVELKKELLRDVDLAERLLGRERPVKSEIEIRGKITRSTIEEISRIKKEPEWMKRLRLRSLELFYKLPTPKWLVGIDVIDLDEMIVYSKPETERASSWEELPKEIREFYERLGLPEIEARFLSGLSAVFDSETVYARVKKYLEEKGVIVMPIEEAVQKYPDLVKRYFMRVFPPSDHKFAALHGALWSGGTFIYVPRGVKIREPIESFFLIGKSGEGQFEHSLIVADEGAYVEWIEGCSAPRLTKFSFHDGMVEAYAHRNATIKIITVQNWSKDVINLNNKRAIAEEGARVDWVEGSIGSKMTFVYPSTILKGDNSSSRSAVVTIAKGPYLKDSGSKMIHVGRNTRSQVINKTISADGGINVYRGIIRIVKGARNAVANVECESLILDDKSKAHTYPHNQVDEPTASVNHEATTGRLTEPQLFYLTSRGLTEEEAKSLIVLGFLEDVLKELPFEYANVLTKVVRLEFSEYGAFG | not soluble
8 | MGSDKIHHHHHHMGGLQNVRSAALIGHNGSGKSLLLAQILYKSGLIDKADTKYVDYDPVEEEKGASFSSHVASLEWKGKKVYLIDTPGFSDFISEVINGIFVSENIISVVNAVAGVEIQTERTWNMADEMKKPIIVFVNQMDKERANFENVVAELKERFSRKIVPVVVPIGAAENFEGVVDLLKKKAYRYDGDKVQEEDMPESFNDMRSEILEDIVEQDEELMMRYLDGEDIGYDELMRVLKEGYKKGEIVPVLSGSALKGIGLDLLLDYLGDIGVSPEEAPSYKALLEDGTEIEVKFSEEEPFCAYIFKSVVDQFVGRITFAKVIAGVLRPGDTVVNVQKDVTEKVGHVYVPILKQQKEVESAGPGEIVVLLKLKEGAVGETLAHRDRRVKIVPPAFPEPMFSRSVHPKSKSDIDKISSGLSRLSDSDPTFVWEYDPETGETVVSGLGAMHLDVMIERLKKIFGVDVEVGKPKIAYRETITTTAVAEHKHKKQTGGHGQYGHVKIQLEPLPRGQGYEFVDKIVGGVIPRNFIPSVDKGIREAMKKGVLAGYPVTDVRVILFDGSYHEVDSSDISFQIAAIQAFKKGMEAAKPVILEPIMEVEVFVPEENAGDVMGEISSRRGRPLGMEPSGKGMVKVKAEVPLAEMLDFSSKLSSITSGRGYFTMRFQRYEIVPPNIQEKIIEERRREMQEQEK | not soluble
9 | MGSDKIHHHHHHMGILVVGSVAFDSVETPFGRVENVLGGSATYFSTSASFFTDVSLVAVVGEDFPQEHVEFLNSRNIDLRGLAREGGKTFHWKGKYGYDLNEAQTLETHLNVFESFRPQIPAAYRDAEFLFLANIDPELQMEVLSQVEKPRVIACDTMNFWISSKPEALKAVIAKVDIFIINEGEARQFTQEANLTKAARKILAMGVKTLVIKRGEYGVLMFTDHSVFAAPAFPLEDVFDPTGAGDTFAGGFMGYLANTGDTSETGIRQAIIFGSVMASFNVEDFSLNRLKRLEYREIEDRYRSFKALTHFEGLAGG | not soluble
10 | MGSDKIHHHHHHMGKGTNPTIGIALGSGAAKGWAHIGVLNGLAAMGIKPDKVAGCSVGALVGAAYAHNHLAELEEWVRSFSSWDVLGLMDIRWRKGGLIGGEKVFDVLQSRIGDVNIEDLEYPFAAIATDLYSGQEIWFRHGDLRQAVRASCSMPGILAPVRQGERWLVDGAVVNPVPVSVSRAMGVDIVIAVDLHGFHSGRLQVLPVNMTSHRATKEDTEMPARQETGFMDLFARGREYVSNLTDKFSLGTKSNPGMIAVMSQSMGILEQRHKRARLMGDPPDICIVPEVANIGTMEFHRADEAIAAGEAAVAKVAHLIEAAIWKD | not soluble
11 | MGSDKIHHHHHHMGKVTIEPLSRLEGHGKVSITLDDAGKPTDVKLHITALRGFEQFVVGRPAEEVPRIVPRICGICQTPHHLASVKAVDAAWGAEVPSAAEKLRELMHLGNMMHSHALHFYYLAAPDFVLGPDSDPAARNIIGVIGAAPEVAKKAIAMRRVGQSIVETIGGRAIHPVTGVPGGVSKALSEEKRDELLNEIDEMIAYGQDGIALIKSLNEKYMDLAKTLGVIDTWYLGMVKDGKHNFYGDTLRFMSPDGKQTTDFKPSEYLDNIGEHVVGHNYVKYPYNKKVGYPDGLYRVGPLAMLNVCDSMPTPLAEEARKDFADTFGKPANQSLAYNHARLIELLASCERVKELLEDSEITSTDIKAEVEPKAGNGVGAIYAPRGTLFHNYETDDKGIVVKANMIVASTHNVPTMEKAIQQAAEVVFK | not soluble
12 | MGSDKIHHHHHHMGKVYVIGNFKGGVGKTKTVTMLAYESALQLGRKTLVIDLDPQGNATRVLAKTGDLAEITYTVTEAFQEGSLEPAITNISENLDLIPANTAFRNLTKILMTKFPSNEFDQINYLNTLLKPLKEKYDAIYIDVPPTISDFSDNAMLAADYCIIVLQTQELSLDGAQTYIAYMQYLADTYDNDLQVLGIIPCMLRPGGRVDNKVLEQAKELYGGNVLNTVVKYQERLKVYDVEGIKISHNYTGKADGWDVKAHKVFIDVLNELDQHQLVLEELEG | not soluble
13 | MGSDKIHHHHHHMGNCQILSSGDKIKLIRKKYGLRQDDIVGEEVTRNLISQIEHNKAKLTKSTAEIIIKNLKEIAKKNNLEMDVTADYLLEDELAQANSILENYVDELKNLLVYKCSRFYESLKSAEEFLIQWDIKEKKVQIYELAGDYFYIQNDLAKSVLYYEKAFDILDKTSYNKSLLSILRKLSLMYLNSLKYDRSIECCNFALNHFKNMPDDYISIFLFNTALCYYYMHYYEKALEVIDNLEPLIKDNTSKLIDVLNNKACCLSDLNRIDEAAEIYLRIFNLLNTNNIKSSQYLLILSNLIDTFAKKDVKDEVIKYLNLLLDRFPTSSQDDSYLSVACFNAAKAFIYLGDLQKAEEYLLKALTLSKNHNKYSLQEKTLSLLTDLYIQLNDFEKLEEINLEAVVLSNSQQKVCTNIFYKLLKFLNQNNKTEDIDKILNFLIKFK | not soluble
14 | MGSDKIHHHHHHMGNRTRTIAGKDITRSVADALQYISYYHPPDYIRSLSQAYAREQSPAAKNAIGQILLNSRMAAFGRRPICQDTGLVVVFAKVGMETRIKSTISFADLVNEGVRQAYLDPDNPLRASIVADPLAGRVNTRDNTPAVVHVDLVQGNQIEITIAAKGGGSENKARFTTLNPSASVSDWVIDTVSTLGSGWCPPGLISVGIGGSAEKAMLLAKEAMNKPIDMSELIARGPSSAEEALRIELYERINALGIGAQGLGGLTTVVDVKVATYPTHAASKPVALIPQCAANRHLKFTLDGSGPIRVQPPDLCEWPDIGTDELSPAGVRRVNLDALTKEETASWRCGETLLLSGKMLTGRDAAHKRMVELIDAGKPLPFDLQGRVIYYVGPVRAVRDEVVGPAGPTTSSRLDDFTDKVLAETGLFAMVGKAERGRAAIESIVRHKTPYLIAVGGAAYLISKSIKSARLIAFEDLGMEAVYEFEVQDMPVIMAVDVDGNSIHNSGPLEWRKRMAADSIARNIGV | not soluble
15 | MGSDKIHHHHHHMGRRGLMTETTYYVNGTEVYVAEIPSNQSTETFFLIHGFVSSTYSYRKLMPLLAKRGRVISVDLPGFGRSGKGRTFTYSFQCYAELMVALMRKLNVSKVTFVGHSMGGQVALYVAKWKPHLVKRLVLLSSSGYLQRVKRPFYFLSYIPFLRQMVKWYVQRQDVTKALQQVVYNKGIVNNEAVEMYRLPLADETFYDALLCLMRQREGDLPKEELRKIHHPVLLLWGEQDRVIPVKIGQRLASDLPNASLIVYKNTGHLLPEERPKEIMKAIDRFIRKRRQFSFFS | not soluble
16 | MGSDKIHHHHHHMGSLAVIDAPGWYETIRMADGVTLIHEPWIKPFFRCNIWHVRGRDRDLLFDTGLGHFSLRTHVPLVTERKLTCVASHTHFDHIGCHHEFPDRGVHPAEAKILADPRNEWTVADRYATDDMFDGLPQGWESSRYRILPAPADRLLDHGDVVDLGDRAFEVIHTPGHSPGGIALYEKKTGILLSGDIIYDGPLIDDVYHSDIPDYMATLLAMRELDVSVVHGGHFPSFGKVRYRQLIDEYLAQKRRAGCHLRQRP | not soluble
17 | MGSDKIHHHHHHMHEHFMTPPPLSVTGKPAIRIGCAGWGIPPQHAALFPPGGGHLERYARLFDTVEIDSSFYRPHQHKTYVRWADTVPDSFRFWVKTPREITHQRRLLECEDSLLRFLEEISGLGYKLGGILVQLPPSLALDVPSAQAFFTLLRQHYAGVAACEPRHASWFSMQGEKLLQDFRLARVAADPAKFPTAGTPGGDTGFSYYRLHGAPEIYYSSYPEAYLRQLAHTLQASIGPAWCIFDNTARGGATANAWDIMRLLDKTMHQD | not soluble
